Experimental data as given in article doi:10.1101/2022.12.07.519454 (bioRxiv, 2022).

Target: T1, GST-tagged yeast Sin3 PAH2 protein (residues 402-473) (S. cerevisiae, UniProt P22579 402-473)
T1 sequence (looked up): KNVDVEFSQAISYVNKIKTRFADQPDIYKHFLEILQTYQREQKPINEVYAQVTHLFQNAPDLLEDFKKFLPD
Test: fluorescence polarisation

B1: unlabeled Ume6 SID peptide (Ume6 residues 516-531) (peptide, UniProt P39001 516-531, looked up)
peptide: LDDDLGTAAAVLSNMR
  IC50: 53.3 ± 2.4 µM
  Ki: 11.4 µM
